Assay results published in patent US20210032298.

B1: FLAG-tagged DHHC3 (over-expressed in HEK293 cells) (protein)
chain: MMLIPTHHFRNIERKPEYLQPEKCVPPPYPGPVGTMWFIRDGCGIACAIVTWFLVLYAEFVVLFVMLIPSRDYVYSIINGIVFNLLAFLALASHCRAMLTDPGAVPKGNATKEFIESLQLKPGQVVYKCPKCCSIKPDRAHHCSVCKRCIRKMDHHCPWVNNCVGENNQKYFVLFTMYIALISLHALIMVGFHFLHCFEEDWTKCSSFSPPTTVILLILLCFEGLLFLIFTSVMFGTQVHSICTDETGIEQLKKEERRWAKKTKWMNMKAVFGHPFSLGWASPFATPDQGKADPYQYVV
B2: DHHC3 (protein acyltransferase; endogenous, in MDA-MB-231 cells) (protein)
chain: MMLIPTHHFRNIERKPEYLQPEKCVPPPYPGPVGTMWFIRDGCGIACAIVTWFLVLYAEFVVLFVMLIPSRDYVYSIINGIVFNLLAFLALASHCRAMLTDPGAVPKGNATKEFIESLQLKPGQVVYKCPKCCSIKPDRAHHCSVCKRCIRKMDHHCPWVNNCVGENNQKYFVLFTMYIALISLHALIMVGFHFLHCFEEDWTKCSSFSPPTTVILLILLCFEGLLFLIFTSVMFGTQVHSICTDETGIEQLKKEERRWAKKTKWMNMKAVFGHPFSLGWASPFATPDQGKADPYQYVV

What was measured:
[1] = target: T1, Myc-tagged CMTM6 C90S mutant (expressed in HEK293 cells)
T1 chain: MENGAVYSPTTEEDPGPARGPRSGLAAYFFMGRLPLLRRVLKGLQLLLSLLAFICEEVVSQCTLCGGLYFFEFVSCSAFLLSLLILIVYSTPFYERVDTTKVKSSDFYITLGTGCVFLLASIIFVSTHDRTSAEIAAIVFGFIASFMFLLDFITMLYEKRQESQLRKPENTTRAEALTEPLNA

[2] = target: T2, Myc-tagged CMTM6 C90S+C115S double mutant (expressed in HEK293 cells)
T2 chain: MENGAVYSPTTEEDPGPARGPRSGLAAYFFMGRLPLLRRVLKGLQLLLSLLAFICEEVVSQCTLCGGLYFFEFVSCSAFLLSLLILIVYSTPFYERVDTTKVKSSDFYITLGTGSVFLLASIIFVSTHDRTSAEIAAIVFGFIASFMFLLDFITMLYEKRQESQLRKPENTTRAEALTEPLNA

[3] = target: T3, Myc-tagged CMTM6 C115S mutant (expressed in HEK293 cells)
T3 chain: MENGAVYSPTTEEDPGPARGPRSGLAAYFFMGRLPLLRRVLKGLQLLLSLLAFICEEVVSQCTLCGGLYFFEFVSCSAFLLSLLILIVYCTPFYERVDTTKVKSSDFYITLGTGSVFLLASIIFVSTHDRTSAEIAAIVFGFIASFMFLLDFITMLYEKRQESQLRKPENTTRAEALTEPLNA

[4] = target: T4, Myc-tagged CMTM6, wild type (expressed in HEK293 cells)
T4 chain: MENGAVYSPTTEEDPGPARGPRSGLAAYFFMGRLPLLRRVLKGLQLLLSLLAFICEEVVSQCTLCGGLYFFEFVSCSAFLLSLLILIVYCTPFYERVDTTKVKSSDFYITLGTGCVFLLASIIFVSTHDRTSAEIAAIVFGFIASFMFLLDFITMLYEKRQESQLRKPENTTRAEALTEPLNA

[5] = target: T5, transmembrane protein 192 (TMEM192), Q8IY95
T5 chain: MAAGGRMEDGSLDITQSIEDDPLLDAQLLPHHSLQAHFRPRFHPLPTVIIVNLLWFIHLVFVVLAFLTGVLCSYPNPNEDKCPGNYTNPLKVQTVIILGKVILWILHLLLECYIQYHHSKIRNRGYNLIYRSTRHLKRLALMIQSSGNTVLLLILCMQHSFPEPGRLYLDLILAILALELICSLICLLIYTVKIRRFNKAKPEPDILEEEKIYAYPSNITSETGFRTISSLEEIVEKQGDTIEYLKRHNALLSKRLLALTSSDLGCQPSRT

[6] = target: T6, Niemann-Pick C1 (NPC1; endogenous, in MDA-MB-231 cells), O15118
T6 chain: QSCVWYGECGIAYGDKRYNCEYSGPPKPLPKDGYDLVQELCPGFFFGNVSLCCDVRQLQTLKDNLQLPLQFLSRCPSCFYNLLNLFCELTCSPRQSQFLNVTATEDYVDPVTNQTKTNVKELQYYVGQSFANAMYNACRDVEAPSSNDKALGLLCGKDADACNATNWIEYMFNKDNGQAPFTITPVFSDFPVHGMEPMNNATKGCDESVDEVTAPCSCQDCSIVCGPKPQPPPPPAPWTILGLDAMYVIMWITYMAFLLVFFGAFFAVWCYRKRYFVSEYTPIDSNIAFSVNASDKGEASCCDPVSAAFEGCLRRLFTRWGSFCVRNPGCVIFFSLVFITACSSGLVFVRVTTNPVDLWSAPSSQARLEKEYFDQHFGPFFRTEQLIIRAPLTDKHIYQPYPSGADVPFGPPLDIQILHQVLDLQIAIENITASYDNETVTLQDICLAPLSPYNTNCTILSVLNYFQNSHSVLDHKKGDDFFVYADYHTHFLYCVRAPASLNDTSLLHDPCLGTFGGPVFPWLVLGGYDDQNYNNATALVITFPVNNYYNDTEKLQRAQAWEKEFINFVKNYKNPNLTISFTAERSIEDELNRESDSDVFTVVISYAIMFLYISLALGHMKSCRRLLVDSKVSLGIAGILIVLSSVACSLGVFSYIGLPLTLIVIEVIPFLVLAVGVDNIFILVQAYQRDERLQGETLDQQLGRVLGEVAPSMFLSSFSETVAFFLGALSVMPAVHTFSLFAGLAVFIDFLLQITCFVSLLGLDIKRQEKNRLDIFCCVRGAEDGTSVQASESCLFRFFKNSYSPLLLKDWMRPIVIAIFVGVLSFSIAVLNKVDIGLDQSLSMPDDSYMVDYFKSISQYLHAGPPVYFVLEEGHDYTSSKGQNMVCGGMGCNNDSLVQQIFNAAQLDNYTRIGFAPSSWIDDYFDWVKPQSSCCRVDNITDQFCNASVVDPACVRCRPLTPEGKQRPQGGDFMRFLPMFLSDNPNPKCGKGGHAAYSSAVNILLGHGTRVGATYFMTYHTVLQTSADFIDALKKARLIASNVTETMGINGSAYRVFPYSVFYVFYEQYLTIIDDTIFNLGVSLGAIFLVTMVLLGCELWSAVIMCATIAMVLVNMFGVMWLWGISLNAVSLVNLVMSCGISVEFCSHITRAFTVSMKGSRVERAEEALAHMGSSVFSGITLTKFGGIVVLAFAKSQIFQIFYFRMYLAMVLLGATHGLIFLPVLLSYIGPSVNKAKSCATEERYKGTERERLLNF

| Protein | incorporation of 3[H]-palmitate into immunoprecipitated Myc-CMTM6 (HEK293 over-expression) [1] | incorporation of 3[H]-palmitate into immunoprecipitated Myc-CMTM6 (HEK293 over-expression) [2] | incorporation of 3[H]-palmitate into immunoprecipitated Myc-CMTM6 (HEK293 over-expression) [3] | incorporation of 3[H]-palmitate into immunoprecipitated Myc-CMTM6 (HEK293 over-expression) [4] | palmitoylation of the substrate after DHHC3 ablation [5] | palmitoylation of the substrate after DHHC3 ablation [6] |
| --- | --- | --- | --- | --- | --- | --- |
| B1 | mutation of C90 (C→S) caused palmitoylation to be diminished by ˜50% | both mutations together (C90S+C115S) did not diminish palmitoylation (FIG. 23A, lane 6) more than C90S alone | a C115 mutation did not diminish incorporation of 3[H]-palmitate | CMTM6 incorporates 3[H]-palmitate when DHHC3 is present (FIG. 23A, lane 3), but not when DHHC3 is absent (FIG. 23A, lane 2) |  |  |
| B2 |  |  |  |  | 4/4 putative DHHC3 substrates (ERGIC3, CMTM6, NPC1, transmembrane protein 192 (TMEM192)) lose substantial palmitoylation when DHHC3 is ablated | 4/4 putative DHHC3 substrates (ERGIC3, CMTM6, NPC1, transmembrane protein 192 (TMEM192)) lose substantial palmitoylation when DHHC3 is ablated |
